According to the nanobody polyreactivity screen of Harvey et al. (2022):

Assay: yeast display, Sf9 membrane polyspecificity reagent, FACS + sequencing; frameworks hold sequencing errors
Summary of the method: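 In a synthetic yeast display library (Saccharomyces cerevisiae BJ5465), nanobody expression was induced with galactose for 36–48 hours. FACS gates were set low and high (top ~1%) using anti-HA fluorescence for expression and streptavidin fluorescence for binding of the Sf9 membrane reagent. Each polyreactivity label is drawn from the gate of origin.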

| Sequence | polyreactivity (PSR sort gate) |
| --- | --- |
| QVQLVESGGGLVQAGGSLRLSCAASVRTSSKYALGWYRQAPGKERELVAGISASGTRTYYADSVKGRFTISRDNAKNTVYLQMNSLKPEDTAVYYCATSFFWYYYWGQGTQVTVSS | high polyreactivity |
| QVQLEESGGGLVQAGGSLRLSCAASGITFWHNTMGWYRQATGKEREMVAAISWTGGRTYYADSVKGRFTISRDNAKNTVYLQMNSLKPDDTAVYYCAADFSWTPSGNYDSWGQGTQVTVSS | low polyreactivity |
| QVQLVESGGGLVQAGGSLRLSCAASGRIFPAYAMGWYRQAPGKERELVASIRRGGITYADSVKGRFTSSRDNAKNTVYLQMNSLKPEDTAVYYCNADKYGPSAYDYWGQGTQVTVSS | low polyreactivity |
| QVQLVESGGGLVQAGGSLRLSCAASGYTFPYAMGWYRQAPGKERELVAAISSRGSSTYYADSVKGRFTISRDNAKNTVYLQINSLKPEDTAVYYCAAKHFVKVDYWGQGTQVTVSS | high polyreactivity |
| QVHLVESGGGLVQAGGSLRLSCAASGFIFQYYAMGWYRQAPGKEREMVAAINRGGGTHYADSVQGRFTISRDNAKNTVYLQMNSLKPEVTAVYYCNKVYYWPGSRPSRYEYWGQGTQVTVSS | low polyreactivity |
| QGQLVESGGGLVQAGGSLRLSCAASGRTFFNNVMGWYRQAPGKERELVAAISKSGTRTYYADSVKGRFTISRDNAKNTVYLQMNSVKPEDTAVYYCATGQYLRTSRYYYWGHGTQVTVSS | high polyreactivity |
| QVQLVESGGGLVHAGGSLRLSCAASGSTFRSYAMGWYRQAPGKERELVARISYRTGSTYYADSVKGRFTISRDYAKNTVYLQMNSLKPEDTAVYYCATRGSYVGGLYDYWGQGTQVTVSS | high polyreactivity |
| QVQHVESGGGLVQAGGSLRLSCAASGSTFVYYAMGWYRQPPGKERELVAVITRGGRTYYADSVKGRFTISRDNAKNTVYLQMNSLKPEDTAVYYCNKVTPHYHDTGLDYWGQGTQVTVSS | high polyreactivity |
| QVQLVESGGGLVQAGGSLRLSCAASGLIFGRYTMGWYRQAPGKEREFVAAISRSGGSTYYADSVKGRFTISRDNAKITVYLQRNSLKPEDTAVYYCAARGSYTRPKRYGYWGQGTQVTVSS | high polyreactivity |
| QVQLVESGGGLVQAGGSLRLSCAASGFIFDYNVMGWYSQAPGKKGSWVAAISWSGGSTYYADSVKGRFTISRDNAKNTVYLEINSLKPEDTAVYYCSSRGTSTFRGTGRYDYWGQGTQVTVSS | high polyreactivity |
| QVQLVESGGGLFQAGGSLRLNCAASGSIFGSYAMVWYIQAPGKELELVAAITSDGITNYADSVKGRFTISRDNEKNTDYLQMNSLKPEDTAVYYCAAPGPLGGSDYWGQGTQVTVSS | low polyreactivity |
| QVQLVESGGGLVQAGGSLRLSCAASGSIFYSNAMGWYRQAPGKERELVAAITSGGRTYYADSVKGRFTISRDNAKNTVYLQMNSLKPEDTAVFYCAARYYLGSWSDYYYWGQGTQVTVSS | high polyreactivity |
| QVQLVESGGGLVQAGGSLRLSCAASGFTFDVYAMGWYRQAPGKERELVATITWSGGSTTYADSVKGRFTISRDNAKNTVYLQMNSLKPEDTAVYYCAADRSVQVTFDYWGQGTQVTVSS | low polyreactivity |
| QVQLVESGGGLVQAGGSLRLSCAASGFIIYFNAMGWYRQPRGKERELVASITSGASTNYADSVKGRFTISRDNAKNTVYLQMNSLKPEDTAVYYCAAAYFWLDPYVEYDYWGQGTQVTVSS | low polyreactivity |
| QVQLVESGGGLVQAGGSLRLSCAASGSTLGYNVMGCYIQAPGKERELVAAISGDGSTNYADSVKGRFTISRDNAKNTVYLQMNSLKPEDTAVYYCAARPGWFAGYEYWGQGTQVTVSS | low polyreactivity |
| QVQLVESGGGLVQAGGSLRLSCAASGFTFAFYTMGWYRQAPGKERELVAGITRSGTNTYYADSVKGRFTISRDNSKNTVYLQMNSLKPEDTSVYYCNADPRTGWYKYDYWGQGTQVTVSS | high polyreactivity |
| QVQLVESGGGLVQAGGSLRLSCASSGFIFPWNAMGWYRQAPGKERELVADISTGTSRTYADSVKGRFTISRDNAKNTVYFQMNSLKPEDTAVYYFNKAHNYKYDWGQGTQVTVSS | low polyreactivity |
| QVQLVESGGGLVQAGGSLRLSCAASVSIFGSNAMRWYRQAPGKERELVAVITNGGRTYYADSVKGRFTISRDNAKNTVFLQMNSLKPEDTAVYYCAASRVYGWYGSYSTYGSWGQGTQVTVSS | high polyreactivity |
| QVQLVESGGGLVQEGGSLRLSCAASGFSFERNAMGWDRQAPGKERELVATIPWSGTRTNYADSVKGRFTISRDNAKNTVYVQMNSLKPEDTAVYYCAVVVSAPSRESKSTVQMDYWGQGTQVTVSS | high polyreactivity |
| QVHLVESGGGLVQAGGSLRLSCAASGSTFSIYTMGWYRQAPGKERELVAVITKSGGSTYYADSLKGRFTISRDNAKNTVYLQMISLKPEDIAVYYCAARRRGARHDYWGQGTQVTVSS | high polyreactivity |
| QVQLVESGGGLVQAGGSLRLSCAASGGTFAWNAMGWYRQATGKERELVAAISFDGTSTYYADSVKGRFTISRDNAKNTVYLQMNSLKPEDTAVYYCNRVYLGYFRYDYWGQGTQVTVSS | high polyreactivity |
